Target: KLB + bFKB1
Assay: SPR; preformed bFKB1/KLB complex

Binder | koff
FGFR1c (receptor) RPSPTLPEQAQPWGAPVEVESFLVHPGDLLQLRCRLRDDVQSINWLRDGVQLAESNRTRITGEEVEVQDSVPADSGLYACVTSSPSGSDTTYFSVNVSDALPSSEDDDDDDDSSSEEKETDNTKPNPVAPYWTSPEKMEKKLHAVPAAKTVKFKCPSSGTPNPTLRWLKNGKEFKPDHRIGGYKVRYATWSIIMDSVVPSDKGNYTCIVENEYGSINHTYQLDVVERSPHRPILQAGLPANKTVALGSNVEFMCKVYSDPQPHIQWLKHIEVNGSKIGPDNLPYVQILKTAGVNTTDKEMEVLHLRNVSFEDAGEYTCLAGNSIGLSHHSAWLTVLEALEERPAVMTSPLYLE | 0.00291 s⁻¹
FGFR1b (receptor) RPSPTLPEQAQPWGAPVEVESFLVHPGDLLQLRCRLRDDVQSINWLRDGVQLAESNRTRITGEEVEVQDSVPADSGLYACVTSSPSGSDTTYFSVNVSDALPSSEDDDDDDDSSSEEKETDNTKPNRMPVAPYWTSPEKMEKKLHAVPAAKTVKFKCPSSGTPNPTLRWLKNGKEFKPDHRIGGYKVRYATWSIIMDSVVPSDKGNYTCIVENEYGSINHTYQLDVVERSPHRPILQAGLPANKTVALGSNVEFMCKVYSDPQPHIQWLKHIEVNGSKIGPDNLPYVQILKTAGVNTTDKEMEVLHLRNVSFEDAGEYTCLAGNSIGLSHHSAWLTVLEALEERPAVMTSPLYLE | 0.0402 s⁻¹
